Target: importin-α (PBMCs) (human (endogenous in PBMCs)) (UniProt P52292)
Experiment: co-IP; PBMCs from seven steroid-naive asthma patients after inhaled FP (100 or 500 µg via a spacer) or placebo in vivo, blood taken at 1 and 2 h; densitometry of blots

- GATA-3–importin-α association (densitometry, median), 2 h after inhaled FP 500 µg: 879
- GATA-3–importin-α association (densitometry, median), reference before the decrease: 13500
Substance: phospho-GATA-3 (PBMCs) (from UniProt P23771 1-443) (natural protein)
